For the test, the target named is Chlamydia psittaci BioE (Chlamydia psittaci). Description: SPR. Background: SPR reads the build-up and loss of mass on a sensor chip optically.

B1: stearoyl-ACP (E. coli acyl carrier protein carrying a C18 acyl group) (natural protein)
chain: STIEERVKKIIGEQLGVKQEEVTNNASFVEDLGADSLDTVELVMALEEEFDTEIPDEEAEKITTVQAAIDYINGHQA
modifications: holo-ACP carrying a stearoyl (C18) group, made with VhAasS
Regarding B1, the koff – broadly, a measure of how fast the partners let go of each other – worked out at 0.00316 s⁻¹.

The values above are taken from publication PMC12915131 (2025).
